Measured values taken from PMC5101189, “Structure of the MIS12 Complex and Molecular Basis of Its Interaction with CENP-C at Human Kinetochores” (Cell, 2016).

Target: T1, NSL1, full length (subunit of the full-length MIS12C in the KMN assembly) (human, UniProt Q96IY1 1-281)
T1 sequence (looked up): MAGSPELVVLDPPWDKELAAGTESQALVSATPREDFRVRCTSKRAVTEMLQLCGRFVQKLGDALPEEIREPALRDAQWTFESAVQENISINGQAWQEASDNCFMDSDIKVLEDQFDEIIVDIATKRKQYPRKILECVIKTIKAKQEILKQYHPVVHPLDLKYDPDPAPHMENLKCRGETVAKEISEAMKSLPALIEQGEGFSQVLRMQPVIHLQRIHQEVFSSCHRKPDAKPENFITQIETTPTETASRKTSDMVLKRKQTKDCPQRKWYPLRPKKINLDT
Assay: cross-linking; 10-subunit KMN assembly with a CENP-C fragment, 45 μg at 1 mg/ml, 650 μM BS3 (d0/d12), 30 min at 37°C; trypsin or AspN digest, tandem mass spectrometry (xQuest)
Details: both partners purified

- binding result: binds
B1: ZWINT (natural protein, human, UniProt O95229 1-277, looked up)
chain: MEAAETEAEAAALEVLAEVAGILEPVGLQEEAELPAKILVEFVVDSQKKDKLLCSQLQVADFLQNILAQEDTAKGLDPLASEDTSRQKAIAAKEQWKELKATYREHVEAIKIGLTKALTQMEEAQRKRTQLREAFEQLQAKKQMAMEKRRAVQNQWQLQQEKHLQHLAEVSAEVRERKTGTQQELDRVFQKLGNLKQQAEQERDKLQRYQTFLQLLYTLQGKLLFPEAEAEAENLPDDKPQQPTRPQEQSTGDTMGRDPGVSFKAVGLQPAGDVNLP
notes: ZWINT, human, subunit of KNL1C in the cross-linked 10-subunit KMN assembly; also called Zwint1
